What was measured:
[1] = target: T1, cell surface nucleolin on MV4-11 AML cells (Homo sapiens, UniProt P19338); test: Flow cytometry (FACS) binding to MV4-11 cells; details: 5 μg/ml, 30 min on ice
T1 construct: endogenous in cells; host or cells: MV4-11 cells
Method: (§1) FIG. 12. Binding of HuMAbs to cell surface nucleolin and cytotoxicity to MV4-11 leukemia cells. (FIG. 12A) Anti-nucleolin HuMabs or Rituxan^R (5 μg/ml) were incubated with MV4-11 or normal tonsil cells for 30 min on ice, washed, then incubated with APC-labeled anti-human IgG (Miltenyi). Flow cytometry was performed on a FACSCaliber, and median fluorescence intensity (MFI) is shown.
analysis was performed using a Becton Dickinson FACSCalibur instrument at the MUSC Flow Cytometry Facility, according to established methods. Infection efficiency of B cells infected with […] was assessed by measuring fluorescence of Green Fluorescent Protein 24 h post-infection. Antibodies used to characterize human B cells were obtained from BD Biosciences and are specific for human CD20, CD19, CD23, CD27, CD30, CD38, IgD, IgM, and IgG.

normal tonsil cells = test: Flow cytometry binding to normal tonsil cells; parameters: species or system human; details: 5 μg/ml, 30 min on ice
Method: as §1

T1 sequence (P19338 whole entry): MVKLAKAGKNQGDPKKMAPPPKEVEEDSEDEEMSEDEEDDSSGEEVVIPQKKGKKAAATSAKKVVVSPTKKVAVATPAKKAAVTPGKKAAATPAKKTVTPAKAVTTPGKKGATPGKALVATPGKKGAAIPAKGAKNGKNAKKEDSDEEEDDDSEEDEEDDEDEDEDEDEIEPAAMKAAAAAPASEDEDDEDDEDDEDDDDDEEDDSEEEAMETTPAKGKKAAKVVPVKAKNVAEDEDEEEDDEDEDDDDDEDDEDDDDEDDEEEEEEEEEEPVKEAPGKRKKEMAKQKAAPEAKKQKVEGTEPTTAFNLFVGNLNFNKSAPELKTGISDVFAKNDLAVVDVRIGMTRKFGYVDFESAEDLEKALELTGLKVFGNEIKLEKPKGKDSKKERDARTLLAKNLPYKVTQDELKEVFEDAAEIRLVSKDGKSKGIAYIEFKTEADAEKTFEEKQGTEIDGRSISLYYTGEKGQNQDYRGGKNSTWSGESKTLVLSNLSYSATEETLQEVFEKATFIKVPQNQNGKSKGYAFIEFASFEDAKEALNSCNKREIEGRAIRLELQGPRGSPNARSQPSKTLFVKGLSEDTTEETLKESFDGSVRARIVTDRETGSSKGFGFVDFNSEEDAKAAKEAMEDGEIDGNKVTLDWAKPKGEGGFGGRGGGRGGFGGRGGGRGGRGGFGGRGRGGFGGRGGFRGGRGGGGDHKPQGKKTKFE

rituximab
binding to MV4-11 cells by flow cytometry [1]: not to MV4-11 cells
binding to normal tonsil cells by flow cytometry (normal tonsil cells): bound to normal tonsil cells

From US9260517B2, “Human monoclonal antibodies to human nucleolin” (MUSC Foundation for Research Development, priority 2009, dated 2016)
